Biological target: T1, CD3 epsilon homodimer protein (UniProt P07766 23-126)
T1 construct: also called CD3 (CD3 epsilon)
Assay: SPR, CD3 epsilon homodimer on chip, one-arm antibody as analyte;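 further: surface plasmon resonance at 25 °C with CD3 epsilon homodimer amine-coupled to a CM4 sensor chip, antibody injected as analyte, HBS-EP+ as running buffer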

T1 sequence (P07766 23-126): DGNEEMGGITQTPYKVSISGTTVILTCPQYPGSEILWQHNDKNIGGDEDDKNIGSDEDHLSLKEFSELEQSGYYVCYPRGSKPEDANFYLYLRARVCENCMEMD

Binder | KD ratio (KD of CE115HA000/KD of altered form)
CE115HA000 H35M (antibody, human IgG1, kappa, L234A L235A, N297A, name in Kabat numbering, one-arm antibody) heavy: QVQLVESGGGVVQPGRSLRLSCAASGFTFSNAWMMWVRQAPGKGLEWVAQIKAKSNNYATYYAESVKGRFTISRDDSKNSLYLQMNSLKTEDTAVYYCRYVHYGAYYGVDAWGQGTTVTVSSASTKGPSVFPLAPSSKSTSGGTAALGCLVKDYFPEPVTVSWNSGALTSGVHTFPAVLQSSGLYSLSSVVTVPSSSLGTQTYICNVNHKPSNTKVDKKVEPKSCDKTHTCPPCPAPEAAGGPSVFLFPPKPKDTLMISRTPEVTCVVVDVSHEDPEVKFNWYVDGVEVHNAKTKPREEQYASTYRVVSVLTVLHQDWLNGKEYKCKVSNKALPAPIEKTISKAKGQPREPQVYTLPPSRCELTKNQVSLSCAVKGFYPSDIAVEWESNGQPENNYKTTPPVLDSDGSFFLVSKLTVDKSRWQQGNVFSCSVMHEALHNHYTQKSLSLSPDYKDDDDK EPKSSDKTHTCPPCPAPELLGGPSVFLFPPKPKDTLMISRTPEVTCVVVDVSHEDPEVKFNWYVDGVEVHNAKTKPREEQYNSTYRVVSVLTVLHQDWLNGKEYKCKVSNKALPAPIEKTISKAKGQPREPQVCTLPPSRDELTKNQVSLWCLVKGFYPSDIAVEWESNGQPENNYKTTPPVLDSDGSFFLYSKLTVDKSRWQQGNVFSCSVMHEALHNRYTQKSLSLSP light: DIVMTQSPLSLPVTPGEPASISCRSSQSLVHSNRNTYLHWYQQKPGQAPRLLIYKVSNRFSGVPDRFSGSGSGTDFTLKISRVEAEDVGVYYCGQGTQVPYTFGQGTKLEIKRTVAAPSVFIFPPSDEQLKSGTASVVCLLNNFYPREAKVQWKVDNALQSGNSQESVTEQDSKDSTYSLSSTLTLSKADYEKHKVYACEVTHQGLSSPVTKSFNRGEC | 3.98
CE115HA000 H35N (antibody, human IgG1, kappa, L234A L235A, N297A, name in Kabat numbering, one-arm antibody) heavy: QVQLVESGGGVVQPGRSLRLSCAASGFTFSNAWMNWVRQAPGKGLEWVAQIKAKSNNYATYYAESVKGRFTISRDDSKNSLYLQMNSLKTEDTAVYYCRYVHYGAYYGVDAWGQGTTVTVSSASTKGPSVFPLAPSSKSTSGGTAALGCLVKDYFPEPVTVSWNSGALTSGVHTFPAVLQSSGLYSLSSVVTVPSSSLGTQTYICNVNHKPSNTKVDKKVEPKSCDKTHTCPPCPAPEAAGGPSVFLFPPKPKDTLMISRTPEVTCVVVDVSHEDPEVKFNWYVDGVEVHNAKTKPREEQYASTYRVVSVLTVLHQDWLNGKEYKCKVSNKALPAPIEKTISKAKGQPREPQVYTLPPSRCELTKNQVSLSCAVKGFYPSDIAVEWESNGQPENNYKTTPPVLDSDGSFFLVSKLTVDKSRWQQGNVFSCSVMHEALHNHYTQKSLSLSPDYKDDDDK EPKSSDKTHTCPPCPAPELLGGPSVFLFPPKPKDTLMISRTPEVTCVVVDVSHEDPEVKFNWYVDGVEVHNAKTKPREEQYNSTYRVVSVLTVLHQDWLNGKEYKCKVSNKALPAPIEKTISKAKGQPREPQVCTLPPSRDELTKNQVSLWCLVKGFYPSDIAVEWESNGQPENNYKTTPPVLDSDGSFFLYSKLTVDKSRWQQGNVFSCSVMHEALHNRYTQKSLSLSP light: DIVMTQSPLSLPVTPGEPASISCRSSQSLVHSNRNTYLHWYQQKPGQAPRLLIYKVSNRFSGVPDRFSGSGSGTDFTLKISRVEAEDVGVYYCGQGTQVPYTFGQGTKLEIKRTVAAPSVFIFPPSDEQLKSGTASVVCLLNNFYPREAKVQWKVDNALQSGNSQESVTEQDSKDSTYSLSSTLTLSKADYEKHKVYACEVTHQGLSSPVTKSFNRGEC | 2.88
CE115HA000 H35Q (antibody, human IgG1, kappa, L234A L235A, N297A, name in Kabat numbering, one-arm antibody) heavy: QVQLVESGGGVVQPGRSLRLSCAASGFTFSNAWMQWVRQAPGKGLEWVAQIKAKSNNYATYYAESVKGRFTISRDDSKNSLYLQMNSLKTEDTAVYYCRYVHYGAYYGVDAWGQGTTVTVSSASTKGPSVFPLAPSSKSTSGGTAALGCLVKDYFPEPVTVSWNSGALTSGVHTFPAVLQSSGLYSLSSVVTVPSSSLGTQTYICNVNHKPSNTKVDKKVEPKSCDKTHTCPPCPAPEAAGGPSVFLFPPKPKDTLMISRTPEVTCVVVDVSHEDPEVKFNWYVDGVEVHNAKTKPREEQYASTYRVVSVLTVLHQDWLNGKEYKCKVSNKALPAPIEKTISKAKGQPREPQVYTLPPSRCELTKNQVSLSCAVKGFYPSDIAVEWESNGQPENNYKTTPPVLDSDGSFFLVSKLTVDKSRWQQGNVFSCSVMHEALHNHYTQKSLSLSPDYKDDDDK EPKSSDKTHTCPPCPAPELLGGPSVFLFPPKPKDTLMISRTPEVTCVVVDVSHEDPEVKFNWYVDGVEVHNAKTKPREEQYNSTYRVVSVLTVLHQDWLNGKEYKCKVSNKALPAPIEKTISKAKGQPREPQVCTLPPSRDELTKNQVSLWCLVKGFYPSDIAVEWESNGQPENNYKTTPPVLDSDGSFFLYSKLTVDKSRWQQGNVFSCSVMHEALHNRYTQKSLSLSP light: DIVMTQSPLSLPVTPGEPASISCRSSQSLVHSNRNTYLHWYQQKPGQAPRLLIYKVSNRFSGVPDRFSGSGSGTDFTLKISRVEAEDVGVYYCGQGTQVPYTFGQGTKLEIKRTVAAPSVFIFPPSDEQLKSGTASVVCLLNNFYPREAKVQWKVDNALQSGNSQESVTEQDSKDSTYSLSSTLTLSKADYEKHKVYACEVTHQGLSSPVTKSFNRGEC | 4.8
CE115HA000 H35R (antibody, human IgG1, kappa, L234A L235A, N297A, name in Kabat numbering, one-arm antibody) heavy: QVQLVESGGGVVQPGRSLRLSCAASGFTFSNAWMRWVRQAPGKGLEWVAQIKAKSNNYATYYAESVKGRFTISRDDSKNSLYLQMNSLKTEDTAVYYCRYVHYGAYYGVDAWGQGTTVTVSSASTKGPSVFPLAPSSKSTSGGTAALGCLVKDYFPEPVTVSWNSGALTSGVHTFPAVLQSSGLYSLSSVVTVPSSSLGTQTYICNVNHKPSNTKVDKKVEPKSCDKTHTCPPCPAPEAAGGPSVFLFPPKPKDTLMISRTPEVTCVVVDVSHEDPEVKFNWYVDGVEVHNAKTKPREEQYASTYRVVSVLTVLHQDWLNGKEYKCKVSNKALPAPIEKTISKAKGQPREPQVYTLPPSRCELTKNQVSLSCAVKGFYPSDIAVEWESNGQPENNYKTTPPVLDSDGSFFLVSKLTVDKSRWQQGNVFSCSVMHEALHNHYTQKSLSLSPDYKDDDDK EPKSSDKTHTCPPCPAPELLGGPSVFLFPPKPKDTLMISRTPEVTCVVVDVSHEDPEVKFNWYVDGVEVHNAKTKPREEQYNSTYRVVSVLTVLHQDWLNGKEYKCKVSNKALPAPIEKTISKAKGQPREPQVCTLPPSRDELTKNQVSLWCLVKGFYPSDIAVEWESNGQPENNYKTTPPVLDSDGSFFLYSKLTVDKSRWQQGNVFSCSVMHEALHNRYTQKSLSLSP light: DIVMTQSPLSLPVTPGEPASISCRSSQSLVHSNRNTYLHWYQQKPGQAPRLLIYKVSNRFSGVPDRFSGSGSGTDFTLKISRVEAEDVGVYYCGQGTQVPYTFGQGTKLEIKRTVAAPSVFIFPPSDEQLKSGTASVVCLLNNFYPREAKVQWKVDNALQSGNSQESVTEQDSKDSTYSLSSTLTLSKADYEKHKVYACEVTHQGLSSPVTKSFNRGEC | 15400

— patent US20210388087A1 (Chugai, published 2021)
